Key:
[1] = target: MHV-68 viral PARP-1-interacting protein (vPIP; ORF49), purified recombinant (murine gammaherpesvirus 68 (MHV-68)); assay: SEC-MALS; 50 mM HEPES pH 7.5, 100 mM NaCl; WTC-050S5 column, DAWN HELEOS II and Optilab T-rEX detectors
[2] = target: His-tagged mouse PARP-1 protein (Sino Biological) (mouse) (UniProt P11103); assay: SPR; […], CM5 chip; […], HBS-EP (10 mM HEPES pH 7.4, 150 mM NaCl, 3 mM EDTA, 0.005% P20); 1:1 binding model
[3] = target: FLAG-tagged PARP-1 in HEK293T cells (UniProt P09874); assay: co-IP (anti-FLAG) and Western blotting, band intensity by ImageJ; conditions: 48 h post-transfection, parent: 1.0
UniProt P09874, sequence (P09874 whole entry): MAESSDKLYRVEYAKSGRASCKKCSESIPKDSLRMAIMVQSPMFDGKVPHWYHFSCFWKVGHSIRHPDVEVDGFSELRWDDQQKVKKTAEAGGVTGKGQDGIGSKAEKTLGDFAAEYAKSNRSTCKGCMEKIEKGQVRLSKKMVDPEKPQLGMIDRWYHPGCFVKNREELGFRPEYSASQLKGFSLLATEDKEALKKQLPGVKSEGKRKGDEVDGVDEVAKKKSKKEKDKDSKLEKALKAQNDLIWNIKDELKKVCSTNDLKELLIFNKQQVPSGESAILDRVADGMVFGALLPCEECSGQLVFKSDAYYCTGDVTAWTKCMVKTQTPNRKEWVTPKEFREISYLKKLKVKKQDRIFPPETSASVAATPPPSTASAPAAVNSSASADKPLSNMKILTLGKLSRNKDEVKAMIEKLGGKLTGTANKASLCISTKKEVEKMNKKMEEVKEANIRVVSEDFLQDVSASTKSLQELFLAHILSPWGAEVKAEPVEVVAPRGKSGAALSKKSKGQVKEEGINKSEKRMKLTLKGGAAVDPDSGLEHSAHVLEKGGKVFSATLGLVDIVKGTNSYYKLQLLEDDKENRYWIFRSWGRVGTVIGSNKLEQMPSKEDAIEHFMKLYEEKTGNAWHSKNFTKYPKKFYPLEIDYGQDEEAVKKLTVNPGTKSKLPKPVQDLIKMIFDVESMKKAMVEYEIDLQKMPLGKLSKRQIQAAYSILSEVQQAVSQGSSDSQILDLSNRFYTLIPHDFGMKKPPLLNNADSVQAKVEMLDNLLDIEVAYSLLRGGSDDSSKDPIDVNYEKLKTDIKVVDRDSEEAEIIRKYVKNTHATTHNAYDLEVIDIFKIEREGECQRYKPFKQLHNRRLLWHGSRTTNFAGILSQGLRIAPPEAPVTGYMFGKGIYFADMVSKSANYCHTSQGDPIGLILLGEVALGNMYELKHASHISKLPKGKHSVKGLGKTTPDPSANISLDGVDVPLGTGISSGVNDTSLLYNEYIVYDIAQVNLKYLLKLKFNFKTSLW

UniProt P11103, sequence (P11103 whole entry): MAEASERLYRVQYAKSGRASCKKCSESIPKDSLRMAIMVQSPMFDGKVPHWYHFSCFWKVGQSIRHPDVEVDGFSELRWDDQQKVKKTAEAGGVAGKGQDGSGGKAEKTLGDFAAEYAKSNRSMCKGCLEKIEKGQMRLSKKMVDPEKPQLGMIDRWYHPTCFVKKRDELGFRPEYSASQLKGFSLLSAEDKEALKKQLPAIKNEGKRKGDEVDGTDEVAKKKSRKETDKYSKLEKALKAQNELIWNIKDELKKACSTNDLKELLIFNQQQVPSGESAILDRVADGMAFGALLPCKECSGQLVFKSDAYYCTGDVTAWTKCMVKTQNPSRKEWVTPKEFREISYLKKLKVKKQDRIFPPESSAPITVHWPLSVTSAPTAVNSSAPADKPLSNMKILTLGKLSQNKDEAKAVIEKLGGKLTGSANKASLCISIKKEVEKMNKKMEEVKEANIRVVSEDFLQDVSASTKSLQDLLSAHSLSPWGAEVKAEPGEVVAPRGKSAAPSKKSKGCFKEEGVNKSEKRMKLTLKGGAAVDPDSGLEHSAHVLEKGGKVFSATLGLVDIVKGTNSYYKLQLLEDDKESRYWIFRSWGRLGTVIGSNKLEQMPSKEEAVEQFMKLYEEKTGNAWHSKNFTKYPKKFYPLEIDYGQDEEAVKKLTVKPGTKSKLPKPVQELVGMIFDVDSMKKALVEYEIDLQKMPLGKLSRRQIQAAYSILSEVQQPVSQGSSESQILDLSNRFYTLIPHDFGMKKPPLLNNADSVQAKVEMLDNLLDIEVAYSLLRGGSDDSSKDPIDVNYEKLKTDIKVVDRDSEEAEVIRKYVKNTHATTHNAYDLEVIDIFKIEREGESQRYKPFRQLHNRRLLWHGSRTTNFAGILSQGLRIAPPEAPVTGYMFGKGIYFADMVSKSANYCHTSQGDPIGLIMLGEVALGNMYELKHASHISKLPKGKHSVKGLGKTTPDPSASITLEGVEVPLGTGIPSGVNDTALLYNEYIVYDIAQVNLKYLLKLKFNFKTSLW

Work on “MHV-68 viral PARP-1-interacting protein (vPIP; ORF49), purified recombinant (natural protein)” yielded a stoichiometry N [1] of 2 and a Kd [2] of 930 nM.
“MYC-tagged vPIP wild type in HEK293T cells F5A; S12A; T16A” gave a ratio to parent [3] of 0.5.
“MYC-tagged vPIP wild type in HEK293T cells F5A; S12A; T16A; H47A; D50A” showed a ratio to parent [3] of 0.3.
“MYC-tagged vPIP wild type in HEK293T cells H47A; D50A” gave a ratio to parent [3] of 1.4.
Work on “ORF49_(KSHV), purified recombinant (natural protein)” yielded a Kd [2] of 410 nM.
